# Data reported in PMC11480441, “Structure of tetrameric forms of the serotonin-gated 5-HT3A receptor ion channel” (The EMBO Journal, 2024).
# “And” between values parts separate entries of the source, which are not always exact repeats. Equal entries are not always repeated.
# Experiments:
# [1] = target: the molecule itself; assay: cryo-EM structure; single-particle cryo-EM of purified 5-HT3AR in saposin lipoprotein (Salipro) with brain polar lipids, 25 mM HEPES, 125 mM NaCl, pH 7.4; apo, with serotonin (uncaged RuBi-5-HT, 200 uM), and with 100 uM 5-HT + 2 mM CaCl2; 2D and 3D classification without imposed symmetry
# [2] = target: the molecule itself; assay: native gel or EMSA; blue native PAGE, 5-20% gradient gel, 4 °C; 10 ug solubilised 5-HT3AR incubated 30 min with 0 to 10 mM SDS; BSA oligomers as size markers
protein,measurement,setting,value
"murine wild-type serotonin 5-HT3A receptor (receptor, mouse (murine), UniProt P23979 24-489, looked up, densities resembling N-linked glycosylation at N82, N148 and N164, 5-HT3A receptor subunit, mouse, wild type, full length; The same subunit is found as a pentamer and as a tetramer (4 or 5 copies); The intracellular domain is not modelled in the tetramer structures; also called 5-HT3R; 5-HT3AR-Salipro; source: purified (C12E9 solubilisation, Streptactin, SEC) and reconstituted in saposins with porcine brain polar lipids; also unpurified in cell-derived plasma …) SRRRATQARDTTQPALLRLSDHLLANYKKGVRPVRDWRKPTTVSIDVIMYAILNVDEKNQVLTTYIWYRQYWTDEFLQWTPEDFDNVTKLSIPTDSIWVPDILINEFVDVGKSPNIPYVYVHHRGEVQNYKPLQLVTACSLDIYNFPFDVQNCSLTFTSWLHTIQDINITLWRSPEEVRSDKSIFINQGEWELLEVFPQFKEFSIDISNSYAEMKFYVIIRRRPLFYAVSLLLPSIFLMVVDIVGFCLPPDSGERVSFKITLLLGYSVFLIIVSDTLPATAIGTPLIGVYFVVCMALLVISLAETIFIVRLVHKQDLQRPVPDWLRHLVLDRIAWILCLGEQPMAHRPPATFQANKTDDCSGSDLLPAMGNHCSHVGGPQDLEKTPRGRGSPLPPPREASLAVRGLLQELSSIRHFLEKRDEMREVARDWLRVGYVLDRLLFRIYLLAVLAYSITLVTLWSIWHYS",stoichiometry N,[1],4 and 5
same,stoichiometry N,[2],3 and 2
